These results are taken from PMC3940202, “Structure of Bacillus subtilis γ-glutamyltranspeptidase in complex with acivicin: diversity of the binding mode of a classical and electrophilic active-site-directed glutamate analogue” (Acta Crystallographica Section D: Biological Crystallography, 2014).

The test concerns the target T1, Bacillus subtilis γ-glutamyltranspeptidase large (L) subunit (Bacillus subtilis, UniProt P54422 36-402).
T1 construct: γ-glutamyltranspeptidase (GGT; EC 2.3.2.2) of Bacillus subtilis, large subunit, residues 36-402, formed from the precursor by autocatalytic cleavage before Thr403; The range 36-402 is what it gives for the L subunit of the protein; The His-tag segment and residues 396-402 are disordered in the crystal; also called GGT L subunit; His6-GGT (large subunit); source: E. coli C41(DE3), plasmid pCold …
T1 sequence (looked up): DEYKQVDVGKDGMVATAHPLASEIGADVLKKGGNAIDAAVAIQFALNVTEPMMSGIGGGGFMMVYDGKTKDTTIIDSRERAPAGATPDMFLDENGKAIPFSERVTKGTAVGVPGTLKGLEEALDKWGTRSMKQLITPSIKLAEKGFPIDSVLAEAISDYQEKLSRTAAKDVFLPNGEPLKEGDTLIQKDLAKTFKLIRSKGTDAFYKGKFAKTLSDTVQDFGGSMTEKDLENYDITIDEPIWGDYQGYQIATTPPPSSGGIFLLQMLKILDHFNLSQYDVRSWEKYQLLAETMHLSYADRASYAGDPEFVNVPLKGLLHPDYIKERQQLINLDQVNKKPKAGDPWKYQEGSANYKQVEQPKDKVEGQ
Kind of test: crystal structure; micro-oil batch method at 293 K; 10 mg/ml protein in 50 mM HEPES pH 7.0 mixed with 26%(w/v) PEG 3350, 0.7 M sodium thiocyanate, 6%(v/v) ethylene glycol; crystals soaked 2 h in 5 mM acivicin; refined at 1.8 Å; one heterodimer in the asymmetric unit. To be noted: both partners purified.

B1: Bacillus subtilis γ-glutamyltranspeptidase small (S) subunit (enzyme, UniProt P54422 403-587, looked up)
chain: TTHFTVADRWGNVVSYTTTIEQLFGTGIMVPDYGVILNNELTDFDAIPGGANEVQPNKRPLSSMTPTILFKDDKPVLTVGSPGGATIISSVLQTILYHIEYGMELKAAVEEPRIYTNSMSSYRYEDGVPKDVLSKLNGMGHKFGTSPVDIGNVQSISIDHENGTFKGVADSSRNGAAIGINLKRK
modifications: acivicin covalently bound through its C3 atom to Thr403 Oγ (crystal soaked for 120 min, PDB 3whs; not in the crystal without soaking, PDB 3whq)
notes: γ-glutamyltranspeptidase (GGT); Made as one His6-tagged precursor with the L subunit and processed autocatalytically; also called GGT S subunit
B1: the binding result is “binds”.
